Experiment [1] concerns the target soluble gHgL (gH residue 18-679 and gL residue 24-137) (Epstein-Barr virus) (UniProt P03231). Briefly: SEC.
In experiment [2] the target is soluble HLA-DR1 loaded with A2 peptide (human). Briefly: SEC.

Sequence of UniProt P03231 (P03231 18-679 limits assumed, chain 1 of 2): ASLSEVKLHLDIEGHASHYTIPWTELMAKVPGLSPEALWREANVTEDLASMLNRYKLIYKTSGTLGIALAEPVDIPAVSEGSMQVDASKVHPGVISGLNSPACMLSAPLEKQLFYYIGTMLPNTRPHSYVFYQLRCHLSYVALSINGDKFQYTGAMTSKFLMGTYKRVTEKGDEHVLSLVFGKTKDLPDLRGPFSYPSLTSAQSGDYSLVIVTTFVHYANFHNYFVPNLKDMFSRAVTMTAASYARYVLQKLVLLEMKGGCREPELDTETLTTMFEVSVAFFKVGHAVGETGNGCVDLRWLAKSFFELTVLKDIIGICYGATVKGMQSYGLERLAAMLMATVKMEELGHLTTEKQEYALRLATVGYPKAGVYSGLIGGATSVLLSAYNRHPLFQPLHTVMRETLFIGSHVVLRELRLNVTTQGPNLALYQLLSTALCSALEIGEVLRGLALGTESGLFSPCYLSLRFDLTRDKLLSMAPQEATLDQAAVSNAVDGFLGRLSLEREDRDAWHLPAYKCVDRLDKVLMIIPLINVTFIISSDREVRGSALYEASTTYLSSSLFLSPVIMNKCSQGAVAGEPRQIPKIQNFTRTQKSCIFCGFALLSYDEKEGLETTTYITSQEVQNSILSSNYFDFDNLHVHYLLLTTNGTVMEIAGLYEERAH
Sequence of UniProt P03231 (P03212 24-137 limits assumed, chain 2 of 2, further chain): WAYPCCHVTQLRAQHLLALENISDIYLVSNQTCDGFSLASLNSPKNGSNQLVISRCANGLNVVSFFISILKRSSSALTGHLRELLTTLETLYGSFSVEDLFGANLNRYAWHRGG

With “soluble gp42 (residue 33-223) (from UniProt P03205 33-223) (domain or fragment)”, the stoichiometry N (gp42 per gHgL) in experiment [1] was found to be 1. Further, the stoichiometry N (gp42 per HLA-DR1) in experiment [2] worked out at 1.

These data come from publication PMC3107886.
